Like-named read-outs stand apart in the source and are kept apart here.
Tests used:
S. pneumoniae GAPN [1] = target: T1, S. pneumoniae GAPN (Streptococcus pneumoniae, UniProt A0A0H2ZNN4); assay: UV kinetics at […] nm, varied G3P with fixed E4P ([…]); assay type: biochemical
T1 construct: N-terminal 6xHis tag, pET21b (NdeI), E. coli BL21(DE3); tag removal not mentioned; homotetramer; catalytic C283

S. pneumoniae GAPN [2] = target: T1, S. pneumoniae GAPN; assay: isothermal titration calorimetry; assay type: binding
[3] = test system: NC(=O)c1ccc[n+]([C@@H]2O[C@H](COP(=O)(O)OP(=O)(O)OC[C@H]3O[C@@H](n4cnc5c(N)ncnc54)[C@H](O)[C@@H]3O)[C@@H](O)[C@H]2O)c1; assay: purified protein; conditions: pH 8.5, 25°C, 1.0 mM G3P (Figure 2 legend says 500 μM), 20 μM GAPN, varied: cofactor
[4] = test system: NC(=O)c1ccc[n+]([C@@H]2O[C@H](COP(=O)(O)OP(=O)(O)OC[C@H]3O[C@@H](n4cnc5c(N)ncnc54)[C@H](OP(=O)(O)O)[C@@H]3O)[C@@H](O)[C@H]2O)c1; assay: purified protein; conditions: pH 7.5, 25°C, 1.0 mM G3P, 40 nM GAPN, varied: cofactor
O=C[C@H](O)COP(=O)(O)O = assay: purified protein; conditions: pH 7.5, 25°C, 1.0 mM NADP+, 40 nM GAPN
[5] = target: the molecule itself; assay: cryo-EM structure; purified GAPN at 90 uM in 50 mM HEPES pH 7.5, 50 mM NaCl, 2 mM DTT; alone (apo), with 1 mM NADP+ (holo) or with 1 mM G3P; single particle reconstruction

O=C[C@H](O)[C@H](O)COP(=O)(O)O [E4P]
Ki (S. pneumoniae GAPN [1]): 25.7 ± 7.2 µM

O=C[C@H](O)COP(=O)(O)O [G3P]
Kd (S. pneumoniae GAPN [2]; read-out: K D): 0.053 ± 0.036 µM

NC(=O)c1ccc[n+]([C@@H]2O[C@H](COP(=O)(O)OP(=O)(O)OC[C@H]3O[C@@H](n4cnc5c(N)ncnc54)[C@H](OP(=O)(O)O)[C@@H]3O)[C@@H](O)[C@H]2O)c1 [NADP^+]
Kd (S. pneumoniae GAPN [2]): 51 ± 32 µM

S. pneumoniae GAPN (Streptococcus pneumoniae D39)
Km [3]: 7200 ± 2000 µM | kcat [3]: 0.4 ± 0.1 s⁻¹ | Km [4]: 119 ± 12 µM | Vmax [4]: 570 ± 20 nM/s | kcat [4]: 14.2 ± 0.6 s⁻¹ | Km (O=C[C@H](O)COP(=O)(O)O): 88 ± 17 µM | Vmax (O=C[C@H](O)COP(=O)(O)O): 580 ± 30 nM/s | kcat (O=C[C@H](O)COP(=O)(O)O): 14.5 ± 0.7 s⁻¹

B1: Streptococcus pneumoniae GAPN (non-phosphorylating glyceraldehyde-3-phosphate dehydrogenase) (enzyme, S. pneumoniae strain D39)
chain: MTRYQNLVNGKWKSSEQEITIYSPINQEELGTVPAMTQTEADEAMQAARAALPAWRALSAIERAAYLHKTAAILERDKEKIGTILAKEVAKGIKAAIGEVVRTADLIRYAAEEGLRITGQAMEGGGFEAASKNKLAVVRREPVGIVLAIAPFNYPVNLSASKIAPALIAGNVVMLKPPTQGSISGLLLAKAFEEAGIPAGVFNTITGRGSEIGDYIIEHKEVNFINFTGSTPIGERIGRLAGMRPIMLELGGKDAALVLEDADLEHAAKQIVAGAFSYSGQRCTAIKRVIVLESVADKLATLLQEEVSKLTVGDPFDNADITPVIDNASADFIWGLIEDAQEKEAQALTPIKREGNLLWPVLFDQVTKDMKVAWEEPFGPVLPIIRVASVEEAIAFANESEFGLQSSVFTNDFKKAFEIAEKLEVGTVHINNKTQRGPDNFPFLGVKGSGAGVQGIKYSIEAMTNVKSIVFDVK
notes: GAPN, non-phosphorylating glyceraldehyde-3-phosphate dehydrogenase of S. pneumoniae strain D39; gapn gene PCR amplified from genomic DNA; UniProt A0A0H2ZNN4_STRP2; The gene was inserted with an N-terminal 6xHis tag into NdeI-cleaved pET21b; Homotetramer in the cryo-EM structures
stoichiometry N [5]: 4

Reference: PMC11633051, “Streptococcus pneumoniae GAPN is a key metabolic player necessary for host infection” (Protein Science : A Publication of the Protein Society, 2024)
